Results taken from patent US7094873.

What was measured:
[1] = target: Hsp90 in rabbit reticulocyte lysate (Hsp90 heterocomplex) (rabbit) (UniProt P30947); assay: reticulocyte lysate with 35S-labeled GR, with or without CHIP, immunoprecipitation of Hsp90 with 3G3; displaced molecule: GR
[2] = target: Hsp90 in rabbit reticulocyte lysate (Hsp90 heterocomplex) (rabbit) (UniProt P30947); assay: rabbit reticulocyte lysate with recombinant CHIP, immunoprecipitation of Hsp90 with 3G3, Western blot; displaced molecule: Hop

Hsp90 in rabbit reticulocyte lysate (Hsp90 heterocomplex) (rabbit), sequence (P30947 2-726, one chain of several): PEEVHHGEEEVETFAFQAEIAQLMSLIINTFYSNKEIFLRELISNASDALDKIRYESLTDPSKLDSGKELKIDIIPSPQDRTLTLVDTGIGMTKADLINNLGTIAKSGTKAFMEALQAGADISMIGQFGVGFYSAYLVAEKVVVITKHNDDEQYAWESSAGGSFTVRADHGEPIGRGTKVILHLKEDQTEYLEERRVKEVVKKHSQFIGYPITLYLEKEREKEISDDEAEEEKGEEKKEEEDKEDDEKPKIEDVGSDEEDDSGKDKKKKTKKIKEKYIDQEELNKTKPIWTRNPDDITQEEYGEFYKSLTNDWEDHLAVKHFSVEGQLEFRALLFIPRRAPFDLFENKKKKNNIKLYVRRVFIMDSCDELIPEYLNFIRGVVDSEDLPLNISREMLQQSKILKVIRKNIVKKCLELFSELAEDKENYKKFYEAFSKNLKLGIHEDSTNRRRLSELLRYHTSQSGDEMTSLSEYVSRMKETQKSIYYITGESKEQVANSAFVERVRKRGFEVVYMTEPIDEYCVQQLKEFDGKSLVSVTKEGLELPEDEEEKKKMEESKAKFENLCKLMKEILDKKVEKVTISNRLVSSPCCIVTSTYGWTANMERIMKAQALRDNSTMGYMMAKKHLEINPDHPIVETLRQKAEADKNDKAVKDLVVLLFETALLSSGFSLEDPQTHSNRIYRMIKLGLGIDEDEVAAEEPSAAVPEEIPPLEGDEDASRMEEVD

## Recombinant hCHIP (His-tagged fusion from plasmid pET-hCHIP, expressed in E. coli BL21) (from UniProt Q9UNE7 1-303)
[1]
  decrease of GR co-precipitated with Hsp90: 50%
[2]
  decrease of the amount of Hop associated with the Hsp90 complex: 50%
